The values below come from patent publication US8440804B2, “Polypeptides having modulatory effects on cells” (Ecole Normale Superieure de Lyon, priority 2006, dated 2013).

Substitutions are numbered along the chain they refer to.

In assay [1] the test system is Hela cells. The assay can be described thus: Colony formation assay (cell proliferation assay, crystal violet). The assay is classed as cell-based. The following applies: continuous expression 2 weeks, compared to AptaLib and human thioredoxin. How it is done:
(§1) (B) Colony formation assays. Hela or MCF-7 cells were transfected with plasmids directing the stable expression of the Cdk inhibitor p21, a library of peptide aptamers from pBK1 (AptaLib), Human thioredoxin (HTRX), and peptide aptamers R7G44, R5G42, R5G52. The cells were cultured for two weeks and the colonies were stained with crystal violet.
(§2) The inventors wished to establish the antiproliferative activity of these peptide aptamers using alternative cellular models and a non-retroviral vector to express individually each aptamer. They cloned the aptamer coding genes into a vector bearing a hygromycin selection marker. They also subcloned the pBK1 library into this vector, to create “AptaLib”. They continuously expressed the aptamers, the empty thioredoxin scaffold or AptaLib in Hela and MCF-7 cells for 2 weeks and they stained the cells that grew. […] These aptamers may originate from the remaining background of slowly proliferating cells during the seventh screening iteration, independently of the expressed aptamers. […] This could be due to the fact that the CMTMR assay is more sensitive in detecting modest antiproliferative effects than the colony formation assay or that some peptide aptamers somehow enhance the CMTMR labeling of their host cells.
(§3) To stably express peptide aptamers in mammalian cells, the episomal eukaryotic expression vector pCEP4 that bears a CMV promoter and a hygromycin selection marker (InVitrogen) was used. Aptamer coding sequences were PCR amplified using the oligonucleotides
(§4) that contained a stop codon. The PCR products were digested with NheI and NotI and ligated into NheI/NotI-cut pCEP4 to create pEA-aptamer plasmids. 3×10^5 cells/well were plated in 6-well plates and transfected 24 h after using Jet PEI (Qbiogen), 3.7 μg pEA-aptamer plasmids and 0.3 μg pEGFP-C1 (Clontech) to monitor transfection. Hygromycin (InVitrogen) was added at 200 μg/ml two days later and the cells were cultured for 2 weeks, renewing the medium twice a week. The cells were then rinsed in PBS and were fixed and stained by incubating 30 min in crystal violet (0.05% crystal violet, 20% ethanol, 0.37% formaldehyde). Excess crystal violet was removed by washing with water. In Vitro Phosphatase Assay

Assay [2] has as its system MCF-7 cells. Described as above. The assay is classed as cell-based. The following applies: MCF-7, continuous expression 2 weeks, compared to AptaLib and human thioredoxin. How it is done:
as §1, §2, §3, §4

Assay [3] relates to CNA. The experiment in a line: Yeast two-hybrid assay. The assay is classed as binding, human. As to conditions: mating assay, LexA-aptamer fusions. The source says: (A) Yeast two-hybrid mating assay. TB50α yeast were co-transformed with pSH18-34T (bearing a lacZ reporter gene) and plasmids directing the expression of LexA alone or in fusion with peptide aptamers R5G42, R7G44 or R5G52. MB210a yeast were transformed with the selected cDNA library plasmids directing the expression of CNAβ, CNAγ, and NS5ATP2 truncated proteins. To obtain negative controls, MB210a yeast were also transformed with the empty prey plasmid (pJG4-5) and with pJG4-5 directing the expression of Ras and FKBP12 prey proteins. To obtain a positive control, MB210a yeast were transformed with pJG4-5 directing the expression of RG22 peptide aptamer prey fusion protein that interacts with LexA in the context of most LexA fusion proteins.
The inventors set out to map the R5G42 binding site on CNA. The CNA interacting clones selected in the yeast two-hybrid experiments corresponded to the carboxy-terminal regions of the beta and gamma isoforms, encompassing the calmodulin-binding domain and the auto-inhibitory domain (see FIG. 3B). […] The LexA-R5G52 bait protein may thus not be properly expressed and/or folded in this yeast two-hybrid setting.
(§5) The inventors explored the ability of R5G42 mutants having a one amino acid change as compared to R5G42, to bind to CNA beta and gamma C-Terminal fragments (FIG. 3b) and to NS5A-TP2. To this end, they proceeded to yeast-two hybrid assays as in example 3. CNA beta and gamma C-Terminal fragments (FIG. 3b) and NS5A-TP2 were cloned in three different plasmids (pSH18-34, pJK103 and pRB18-40), which differed from each other in the level of sensitivity of their promoter to the bait/prey complex formation, pSH18-34 having the highest sensitivity and pRB18-40 having the lowest.
The 5′ end of RH6 (upper case) matches part of the HA epitope tag and the 5′ ends of RH4, RH3 and RH7 (upper case) match the 5′ extremity of the ADH terminator. The PCR reactions was performed using pCMV-SPORT6-CnAβ as a template. CnAβCter Δ1, Δ2, CaM were constructed by combining oligonucleotides RH6/RH4, RH6/RH3, RH6/RH7, respectively. […]

The test system of assay [4] is Raw1 cells (osteoclasts precursors). The assay can be described thus: Raw cell differentiation assay (osteoclast differentiation). The assay is classed as cell-based. The source says: Trx, CNA* and Peptide aptamers R5G42, C2, C7, C8 and N9 were transfected into RAW1 cells and left for four days in absence of the normal differentiation factor RANKL. CNA* is activated calcineurin A which elicits a robust differentiation response.
The inventors assessed the ability of some CNA-specific peptide aptamers to promote osteoclast differentiation via the activation of CNA. […] The differentiation state was then observed 4 days post-transfection.
Raw1 cells were transfected with the following plasmids: pCI-HA-Trx (negative control), pCI-HA CNA* (positive control for differentiation activation), pCI-HA R5G42, pCI-HA R5G42-C2, pCI-HA R5G42-C7, pCI-HA R5G42-C8 and pCI-HA R5G42-N9. The sequence of CNA* is the same as that of CNA8 (see FIG. 17, SEQ ID 42). The sequences of the R5G42 (SEQ ID 22), C2 (SEQ ID 23), C7 (SEQ ID 27), C8 (SEQ ID 28) and N9 (SEQ ID 33) aptamers is shown on FIG. 8.
One day before the transfection, Raw I cells were plated in 6-well dishes at 50 cell/mm^2. Transfection was performed with FuGene 6 Reagent (Roche) using 2 μg of each plasmid and following supplier recommendations.
8 h after transfection D-MEM was changed with α-MEM. In the control dishes α-MEM+50 ng/ml RANKL was added. After 2 days, medium was changed with a fresh medium. The differentiation state was then observed 4 days post-transfection.

The target in assay [5] is T1, CNA beta C-terminal fragment (Homo sapiens, UniProt P16298).
T1 construct: expressed in transfected cells; host or cells: yeast (MB210a transformed with library plasmid, mated with bait strain)
The experiment in a line: Yeast two-hybrid assays of R5G42 mutants. The assay is classed as binding. As to conditions: plasmids pSH18-34, pJK103, pRB18-40. The procedure: (§6) The capacity of R5G42 mutants having a one amino acid change as compared to R5G42 to bind CNA beta and gamma C-Terminal fragments (FIG. 3b) and NS5A-TP2 was tested in yeast two-hybrid assays. CNA beta and gamma C-Terminal fragments and NS5A-TP2 were cloned in three different vectors (pSH18-34, pJK103 and pRB18-40). These three plasmids differ from each other in the level of sensitivity of their promoter, pSH18-34 having the highest sensitivity and pRB18-40 having the lowest.
as §5

Assay [6] concerns CNA gamma C-terminal fragment. The experiment in a line: Yeast two-hybrid assays of R5G42 mutants. The assay is classed as binding, human. As to conditions: plasmids pSH18-34, pJK103, pRB18-40. The procedure:
as §6, §5

Assay [7] concerns the target T2, NS5A-TP2 (Homo sapiens, UniProt Q7Z4H3).
T2 construct: expressed in transfected cells; host or cells: yeast
T2 sequence (Q7Z4H3 1-204): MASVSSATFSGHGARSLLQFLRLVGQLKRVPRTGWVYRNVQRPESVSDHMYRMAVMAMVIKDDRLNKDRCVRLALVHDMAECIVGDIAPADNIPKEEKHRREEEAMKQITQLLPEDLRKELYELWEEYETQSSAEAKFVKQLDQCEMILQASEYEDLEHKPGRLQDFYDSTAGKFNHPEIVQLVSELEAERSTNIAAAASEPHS
The experiment in a line: Further yeast two-hybrid binding assays (higher sensitivity). The source says:
FIG. 14. Specificity of aptamers according to the invention for CNA and NS5A-TP2 Interaction matrix between peptide aptamers R5G42, C2, C7, C8, N9, R5G44 and R5G52 with CNA constructs CNA1-CNA8 (A) CNA9-11 (B) and NS5A-TP2 (C). An interaction phenotype between CNA3/CNA 11, which both contain the Calmodulin binding domain (CaM) and the auto-inhibitory domain (Al) but not the CNB binding domain (CNB) and the aptamers R5G42, C2, C7, C8 and N9 is observed in a two-hybrid assay. R5G44 and R5G52 aptamers recognize neither the CNA fragments, nor NS5A-TP2. Only aptamers R5G42 and N9 recognize NS5A-TP2.
The inventors proceeded to further yeast two-hybrid binding assays between peptide aptamers R5G42 (SEQ ID 22), C2 (SEQ ID 23), C7 (SEQ ID 27), C8 (SEQ ID 28), N9 (SEQ ID 33), R5G44 and R5G52 with CNA constructs CNA1-CNA8 (FIG. 14A), CNA9-CNA11 (FIG. 14B) and NS5A-TP2 (SEQ ID 15) (FIG. 14C). The sensitivity of this yeast two-hybrid assay was higher than in the experiment reported above.

Where [8] appears, read: 4 days post-transfection, absence of RANKL.

Chain of CNA gamma C-terminal fragment (P48454 386-512 limits assumed): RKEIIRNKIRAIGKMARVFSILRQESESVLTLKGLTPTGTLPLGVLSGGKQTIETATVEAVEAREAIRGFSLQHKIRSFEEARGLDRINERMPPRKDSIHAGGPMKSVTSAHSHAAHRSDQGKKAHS

Regarding “R7G11: peptide aptamer: variable region LHLAGRGWEN in human thioredoxin (SEQ ID 30) (Aptamer variable sequence of R7G11)”, the “inhibition of cell proliferation (colony formation)” value in assay [1] and in assay [2] was “did not inhibit cell proliferation” throughout.
In the case of “R7G44: peptide aptamer: variable region HQSTIGVAEF in human thioredoxin (SEQ ID 31); control without antiproliferative effect”, the “inhibition of cell proliferation (colony formation)” value in assay [1] and in assay [2] was “did not exert any antiproliferative effect” throughout. Further, the “yeast two-hybrid interaction phenotype with CNA” value in assay [3] was “did not show an interaction phenotype”.

B1: receptor activator of nuclear factor (NF)-κB ligand (protein, UniProt O14788 140-317, looked up)
Tumor necrosis factor ligand …: IRAEKAMVDGSWLDLAKRSKLEAQPFAHLTINATDIPSGSHKVSLSSWYHDRGWAKISNMTFSNGKLIVNQDGFYYLYANICFRHHETSGDLATEYLQLMVYVTKTSIKIPSSHTLMKGGSTKYWSGNSEFHFYSINVGGFFKLRSGEEISIEVSNPSLLDPDQDATYFGAFKVRDID
notes: TNF family cytokine, normal osteoclast differentiation factor
Turning to B1, in assay [4] (control conditions, 50 ng/ml RANKL), the osteoclast differentiation result is on record as “differentiated into osteoclasts”.

B2: C2: R5G42 mutant having a one amino acid change (SEQ ID 23) (protein)
chain: MVKQIESKTAFQEALDAAGDKLVVVDFSATWCGPSAVTFAVCALGPCKMIKLFFHSLSEKYSNVIFLEVDVDDCQDVASECEVKCMPTFQFFKKGQKVGEFSGANKEKLEATINELV
modifications: Aptamer R5G42 mutant C2
Consider B2, for which the yeast two-hybrid interaction entry in assay [5] and in assay [6] was “shown to interact” throughout. In addition, the “recognition of NS5A-TP2” value in assay [7] was “only aptamers which recognized NS5A-TP2 were R5G42 and N9”. In assay [4] (setting [8]), the osteoclast differentiation result is on record as “no osteoclasts fully differentiated were detectable”.

B3: C7: R5G42 mutant having a one amino acid change (SEQ ID 27) (protein)
chain: B2 chain with L22P, L52P
modifications: Aptamer R5G42 mutant C7
Consider B3, for which the yeast two-hybrid interaction result in assay [5] and in assay [6] was “shown to interact” in each case. Besides, the “recognition of NS5A-TP2” value in assay [7] was “only aptamers which recognized NS5A-TP2 were R5G42 and N9”. The osteoclast differentiation entry in assay [4] (setting [8]) is “Some cells with the osteoclast phenotype can be observed”.

B4: C8: R5G42 mutant having a one amino acid change (SEQ ID 28) (protein)
chain: B2 chain with F39I, L52P
modifications: Aptamer R5G42 mutant C8
On to B4, for which the yeast two-hybrid interaction result in assay [5] and in assay [6] was “shown to interact” in each case. For the same molecule, the “recognition of NS5A-TP2” value in assay [7] is “only aptamers which recognized NS5A-TP2 were R5G42 and N9”. Also, in assay [4] (setting [8]), the osteoclast differentiation result is on record as “no osteoclasts fully differentiated were detectable”.
